In patent US20090092595A1, “Suppression of sPLA2-integrin binding for treating an inflammatory condition” (REGENTS OF THE UNIVERSITY OF CALIFORNIA, priority 2007, published 2009):
Positions count from the first letter of the chain named. In names and notes the source's numbering stands.

B1: sPLA2-IIA H47Q mutant (catalytically inactive) (enzyme, human, UniProt P14555 21-144, looked up)
chain: NLVNFHRMIKLTTGKEAALSYGFYGCHCGVGGRGSPKDATDRCCVTQDCCYKRLEKRGCGTKFLSYKFSNSGSRITCAKQDSCRSQLCECDKAAATCFARNKTTYNKKYQYYSNKHCRGSTPRC
notes: mature; the printed positions appear to count on the mature protein, not on the precursor entry P14555; also called H47Q sPLA2-IIA; not shown: N-terminal vector-encoded residues with His tag from the PET28a/amp vector
B2: R42E: sPLA2-IIA mutant, Arg-42 mutated to Glu (protein)
chain: B1 chain with R42E, Q47H
modifications: left off: small tags and cut ends
notes: sPLA2-IIA mutant, Arg-42 mutated to Glu
B3: R100E: sPLA2-IIA mutant, Arg-100 mutated to Glu (protein)
chain: B1 chain with Q47H, R100E
modifications: left off: small tags and cut ends
notes: sPLA2-IIA mutant, Arg-100 mutated to Glu
B4: R53E: sPLA2-IIA mutant, Arg-53 mutated to Glu (protein)
chain: B1 chain with Q47H, R53E
modifications: left off: small tags and cut ends
notes: sPLA2-IIA mutant, Arg-53 mutated to Glu
B5: R74E: sPLA2-IIA mutant, Arg-74 mutated to Glu (protein)
chain: B1 chain with Q47H, R74E
modifications: left off: small tags and cut ends
notes: sPLA2-IIA mutant, Arg-74 mutated to Glu
B6: sPLA2-IIA R74E/R100E mutant (integrin-binding-defective) (enzyme, human, UniProt P14555 21-144, looked up)
chain: B1 chain with Q47H, R74E, R100E
notes: mature; the printed positions appear to count on the mature protein; not shown: N-terminal vector-encoded residues with His tag from the PET28a/amp vector

Key:
integrin α4β1 = target: T1, integrin α4β1 (Homo sapiens, UniProt P05556+P13612); experiment: Adhesion of α4-K562 cells (recombinant α4β1) to immobilized sPLA2-IIA; assay type: cell-based; conditions: data not shown
T1 construct: K562 cells have endogenous α5β1; expressed in transfected cells; host or cells: K562
Description: FIG. 5. sPLA2-IIA binding to integrin α4β1. a) Cells expressing recombinant α4β1 adhered to wt sPLA2-IIA better than cells expressing other recombinant integrins. We used transfected K562 cells clonally express different human integrins for adhesion assays. Low background adhesion to BSA was subtracted. […] Wells of 96-well microtiter plate were coated with VCAM-1 and FN-GST, and incubated with U937 cells (1×10^4 cells/plate) in the presence of the increasing concentrations of sPLA2-IIA for 1 h at 37° C. Adherent cells were quantified using endogenous phosphatase after gently rinsing the well to remove unbound cells. Data is shown as means+/−SEM of triplicate experiments. *P=0.0101 and **P<0.0001 by t-test. c) Amino acid sequence in the α4 subunit that is critical for VCAM-1 and CS-1 binding is also critical for sPLA2-IIA binding. CHO cells that clonally express wt or mutant α4 (Irie, A. et al., Embo J, 14(22): 5550-5556 (1995)) were used for adhesion assays. Data is shown as means+/−SEM of triplicate experiments. Similar results were obtained using K562 cells expressing α4 mutants (not shown).
Other methods We performed docking simulation of interaction between sPLA2-IIA and integrin αvβ3 using the AutoDock3 as previously described (Mori, S. et al., J Biol Chem, in press (2008)). […]

soluble integrin αvβ3 = target: T2, soluble integrin αvβ3 (Homo sapiens, UniProt P05106+P06756); experiment: Binding of soluble αvβ3 to immobilized sPLA2-IIA (ELISA-type assay); conditions: immobilized protein, 20 μg/ml coating
T2 construct: Recombinant soluble αvβ3 was synthesized as previously described; made in house
Description: Binding of soluble αvβ3 to immobilized sPLA2-IIA sPLA2-IIA was immobilized to wells of 96 well microtiter plates and the remaining protein-binding sites were blocked by BSA as described (Mori, S. et al., J Biol Chem, 283:18066-18075 (2008)). Soluble recombinant αvβ3 at 5 μg/ml in Hepes-Tyrodes buffer supplemented with 1 mM MnCl2 was added to the well and incubated for 2 h. Bound αvβ3 was measured using anti-integrin β3 (mAb AV-10) followed by HRP-conjugated goat anti-mouse IgG and peroxidase substrates.

[1] = target: T3, recombinant soluble integrin αvβ3 (UniProt P06756 31-992; P05106 27-718); experiment: SPR (Biacore), soluble αvβ3 amine-coupled to CM5 chip, mutant injected, 1 mM Mn2+, 1:1 binding with drifting baseline model
T3 construct: Soluble heterodimer; whole entries named only; also called soluble αvβ3; soluble recombinant αvβ3
T3 sequence (P06756 31-992, chain 1 of 2): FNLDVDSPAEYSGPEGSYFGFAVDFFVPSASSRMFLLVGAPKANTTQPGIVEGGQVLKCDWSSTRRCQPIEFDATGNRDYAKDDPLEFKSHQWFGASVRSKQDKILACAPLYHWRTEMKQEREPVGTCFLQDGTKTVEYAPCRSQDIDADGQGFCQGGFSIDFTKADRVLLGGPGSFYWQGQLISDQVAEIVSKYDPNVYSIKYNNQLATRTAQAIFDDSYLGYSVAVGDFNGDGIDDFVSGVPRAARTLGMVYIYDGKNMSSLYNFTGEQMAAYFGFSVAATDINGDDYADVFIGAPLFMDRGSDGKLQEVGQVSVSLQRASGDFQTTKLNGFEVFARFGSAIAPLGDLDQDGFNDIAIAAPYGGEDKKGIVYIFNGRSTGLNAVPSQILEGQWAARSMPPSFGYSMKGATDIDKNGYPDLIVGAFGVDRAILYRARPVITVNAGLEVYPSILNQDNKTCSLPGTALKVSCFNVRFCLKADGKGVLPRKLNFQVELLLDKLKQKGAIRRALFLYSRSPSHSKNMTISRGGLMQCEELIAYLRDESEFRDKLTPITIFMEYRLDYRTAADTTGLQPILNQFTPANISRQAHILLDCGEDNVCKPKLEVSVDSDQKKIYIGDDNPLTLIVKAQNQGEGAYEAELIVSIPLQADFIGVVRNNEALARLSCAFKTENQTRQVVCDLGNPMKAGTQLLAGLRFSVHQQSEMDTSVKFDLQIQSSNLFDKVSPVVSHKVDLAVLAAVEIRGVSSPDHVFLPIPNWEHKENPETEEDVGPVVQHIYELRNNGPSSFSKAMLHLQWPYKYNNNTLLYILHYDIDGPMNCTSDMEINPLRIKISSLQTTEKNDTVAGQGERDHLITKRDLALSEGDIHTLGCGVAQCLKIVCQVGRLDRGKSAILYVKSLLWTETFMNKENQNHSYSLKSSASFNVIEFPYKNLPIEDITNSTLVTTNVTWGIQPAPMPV
T3 sequence (P05106 27-718, chain 2 of 2): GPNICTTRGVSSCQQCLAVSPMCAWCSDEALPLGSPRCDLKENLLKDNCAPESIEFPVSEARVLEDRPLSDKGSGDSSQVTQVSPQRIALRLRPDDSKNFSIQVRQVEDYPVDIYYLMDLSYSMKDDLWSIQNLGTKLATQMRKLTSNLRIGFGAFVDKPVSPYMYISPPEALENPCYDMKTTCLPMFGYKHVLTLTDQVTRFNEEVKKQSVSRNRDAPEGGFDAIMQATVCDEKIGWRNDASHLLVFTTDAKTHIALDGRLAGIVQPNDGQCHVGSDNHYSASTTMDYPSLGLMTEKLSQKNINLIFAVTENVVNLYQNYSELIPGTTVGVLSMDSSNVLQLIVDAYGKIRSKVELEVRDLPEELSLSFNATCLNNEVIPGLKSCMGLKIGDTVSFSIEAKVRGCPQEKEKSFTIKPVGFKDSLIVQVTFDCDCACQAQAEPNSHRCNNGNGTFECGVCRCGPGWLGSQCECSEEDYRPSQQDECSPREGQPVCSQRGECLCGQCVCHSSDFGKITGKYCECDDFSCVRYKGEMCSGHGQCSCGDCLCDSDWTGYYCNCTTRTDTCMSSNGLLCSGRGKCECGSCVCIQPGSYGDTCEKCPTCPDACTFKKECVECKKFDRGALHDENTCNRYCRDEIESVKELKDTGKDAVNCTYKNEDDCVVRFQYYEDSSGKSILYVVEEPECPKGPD
Description: The mutant proteins were tested for binding to soluble integrin αvβ3.
Surface plasmon resonance study Recombinant soluble integrin αvβ3 was immobilized to Biacore Sensor chip CM5 (Biacore, Piscataway, N.J.) by the standard amine coupling method. […] Then the sensor chip was washed with the running buffer alone at the same flow rate for another 5 min (the dissociation phase). Two consecutive one-minute injections of 0.5 M, pH 8 EDTA solution at the same flow rate were used to regenerate the chip for another cycle of injection. The resonance unit elicited from the reference flow cell was subtracted from the resonance unit elicited from the integrin flow cell to eliminate the non-specific protein-flow cell interaction and the bulk refractive index effect. The recorded binding curves were fitted with the “1:1 binding with drifting baseline model” by using the Biaevaluation Version 4.1.

T2 sequence (P06756 31-992 limits assumed): as the sequence (P06756 31-992, chain 1 of 2) above
T2 sequence (P05106 27-718 limits assumed): as the sequence (P05106 27-718, chain 2 of 2) above
T1 sequence (P13612 34-1032): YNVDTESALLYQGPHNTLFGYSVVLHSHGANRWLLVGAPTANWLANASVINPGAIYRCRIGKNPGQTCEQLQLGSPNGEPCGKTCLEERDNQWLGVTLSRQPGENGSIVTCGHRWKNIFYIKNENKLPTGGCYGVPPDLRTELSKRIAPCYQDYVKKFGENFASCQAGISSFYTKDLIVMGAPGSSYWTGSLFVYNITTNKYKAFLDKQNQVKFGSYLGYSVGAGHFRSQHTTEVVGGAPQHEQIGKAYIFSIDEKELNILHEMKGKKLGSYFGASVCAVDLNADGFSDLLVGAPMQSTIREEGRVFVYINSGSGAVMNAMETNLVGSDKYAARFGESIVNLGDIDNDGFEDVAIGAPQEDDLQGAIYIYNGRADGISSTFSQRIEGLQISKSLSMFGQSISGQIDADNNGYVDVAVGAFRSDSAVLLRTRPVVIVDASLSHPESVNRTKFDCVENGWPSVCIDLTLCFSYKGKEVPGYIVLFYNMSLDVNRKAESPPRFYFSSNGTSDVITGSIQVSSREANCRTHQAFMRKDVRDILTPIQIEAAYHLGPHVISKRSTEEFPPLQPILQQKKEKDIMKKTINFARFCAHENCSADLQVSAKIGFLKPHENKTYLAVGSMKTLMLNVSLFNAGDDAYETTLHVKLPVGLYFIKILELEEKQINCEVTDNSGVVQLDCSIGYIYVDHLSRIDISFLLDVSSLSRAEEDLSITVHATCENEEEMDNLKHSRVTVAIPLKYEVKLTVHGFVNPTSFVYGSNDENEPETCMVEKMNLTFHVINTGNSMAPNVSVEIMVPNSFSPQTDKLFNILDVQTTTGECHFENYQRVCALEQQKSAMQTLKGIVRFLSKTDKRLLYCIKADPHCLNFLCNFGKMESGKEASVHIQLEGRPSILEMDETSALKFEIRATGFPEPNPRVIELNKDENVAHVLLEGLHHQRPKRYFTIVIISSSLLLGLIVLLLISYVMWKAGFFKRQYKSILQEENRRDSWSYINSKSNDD
T1 sequence (P05556 21-798): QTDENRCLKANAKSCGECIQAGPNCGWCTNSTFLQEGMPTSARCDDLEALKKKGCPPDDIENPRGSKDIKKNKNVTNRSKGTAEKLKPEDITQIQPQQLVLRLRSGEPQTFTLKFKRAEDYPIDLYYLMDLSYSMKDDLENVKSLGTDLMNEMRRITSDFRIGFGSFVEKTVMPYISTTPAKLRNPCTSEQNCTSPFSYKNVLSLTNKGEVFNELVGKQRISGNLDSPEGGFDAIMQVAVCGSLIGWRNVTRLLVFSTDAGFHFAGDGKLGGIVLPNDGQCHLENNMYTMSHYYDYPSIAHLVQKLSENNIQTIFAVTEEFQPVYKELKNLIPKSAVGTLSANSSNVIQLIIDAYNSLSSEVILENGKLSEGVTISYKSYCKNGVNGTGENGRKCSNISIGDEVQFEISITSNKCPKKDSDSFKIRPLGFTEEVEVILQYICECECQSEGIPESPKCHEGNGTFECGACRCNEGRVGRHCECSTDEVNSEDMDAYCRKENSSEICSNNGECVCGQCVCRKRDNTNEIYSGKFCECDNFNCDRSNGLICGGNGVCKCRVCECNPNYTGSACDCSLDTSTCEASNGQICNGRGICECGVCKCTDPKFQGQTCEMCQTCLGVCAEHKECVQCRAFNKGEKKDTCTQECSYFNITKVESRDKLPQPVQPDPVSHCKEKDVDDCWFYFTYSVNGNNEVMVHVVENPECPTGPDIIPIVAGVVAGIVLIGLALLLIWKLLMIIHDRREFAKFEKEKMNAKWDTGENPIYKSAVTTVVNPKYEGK

Row | Molecule | binding to soluble αvβ3 (soluble integrin αvβ3) | other results
1 | Cc1ccccc1NC(=O)Nc1ccc(CC(=O)N[C@@H](CCCCNC(=O)/C=C/c2cccnc2)C(=O)N[C@@H](CCCC(=O)O)C(=O)NC2(C(N)=O)CCCCC2)cc1 [LLP2A, reference compound] | – | blocking of α4β1 binding to sPLA2-IIA in transfected K562 cells (integrin α4β1): did not block
2 | disintegrin domain of ADAM15: a known αvβ3 ligand, positive control [reference compound] | bound | –
3 | B1 | – | Kd [1]: 44.7 nM
4 | B2 | little or no effect | –
5 | B3 | reduced the binding | –
6 | B4 | little or no effect | –
7 | B5 | reduced the binding | –
8 | B6 | – | Kd [1]: 1080 nM
